Assay results reported in patent US20170065662A1 (RESEARCH FOUNDATION FOR THE STATE UNIVERSITY OF NEW YORK, published 2017).

Legend:
[1] = target: T1, GST-Brk (full length GST-PTK6/Brk, SignalChem) (UniProt Q13882 1-451); assay: immunoprecipitation with GST antibodies, p27 immunoblot
T1 construct: mature; Bought enzyme; also called full length Brk; GST-tagged Brk; not shown: glutathione S-transferase (GST) tag
Description: The reactions were probed by immunoblot analysis with pY88 and pY74 antibodies (FIG. 3C).

[2] = target: T2, SH3 domain of Yes displayed on phage (UniProt P07947 91-152, limits assumed); assay: phage-ELISA on immobilised GST-K2
T2 construct: domain: SH3; also called Yes-SH3

[3] = target: T3, SH3 domain of Abl displayed on phage (UniProt P00519 61-121, limits assumed); assay: phage-ELISA on immobilised GST-K2
T3 construct: domain: SH3; also called Abl-SH3
T3 sequence (P00519 61-121 limits assumed): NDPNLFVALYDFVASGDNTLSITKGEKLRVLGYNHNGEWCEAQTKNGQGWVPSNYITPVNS

T2 sequence (P07947 91-152 limits assumed): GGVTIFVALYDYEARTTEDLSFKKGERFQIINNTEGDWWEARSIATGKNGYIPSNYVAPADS

RKWNFDFQNHKPLEGKYEWQEVEKGSLPEFYYRPPRPPKGACKVPAQES (not shown: Flag tag) [F58-106 (Flag tagged K1-site containing peptide, p27 residues 58 to 106)]
binding result [1]: binds

B1: GST-K2 (N-terminally GST-tagged p27 K2 PxxP peptide) (peptide)
chain: DVSGSRPAAPLIGAPA
notes: also called K2 peptide; K2 site; not shown: glutathione S-transferase (GST) tag of the pGEX-KG vector, N-terminal
binding result [2]: no binding
binding result [3]: no binding
